Test results as given in PMC3147155.

Molecular target: I95E mutant of the PAS-A domain of the Bacillus subtilis protein KinA (Bacillus subtilis)
Assay: AUC

- log(Ka): 3.96
- log(k−) (log of koff): -3.7
- stoichiometry N: 2
Substance: I95E mutant of the PAS-A domain of the Bacillus subtilis protein KinA (domain or fragment)
